Measurements reported in patent US20230242635A1 (published 2023).

B1: caninized anti-IL31 antibody 34D03 (mAb1), canine IgGB, N434M (antibody)
chain 1: EVQLVESGGDLVKPGGSLRLSCVASGFTFSNYGMSWVRQAPGKGLQWVATISYGGSYTYYPDNIKGRFTISRDNAKNTLYLQMNSLRAEDTAMYYCVRGYGYDTMDYWGQGTLVTVSSASTTAPSVFPLAPSCGSTSGSTVALACLVSGYFPEPVTVSWNSGSLTSGVHTFPSVLQSSGLYSLSSMVTVPSSRWPSETFTCNVAHPASKTKVDKPVPKRENGRVPRPPDCPKCPAPEMLGGPSVFIFPPKPKDTLLIARTPEVTCVVVDLDPEDPEVQISWFVDGKQMQTAKTQPREEQFNGTYRVVSVLPIGHQDWLKGKQFTCKVNNKALPSPIERTISKARGQAHQPSVYVLPPSREELSKNTVSLTCLIKDFFPPDIDVEWQSNGQQEPESKYRTTPPQLDEDGSYFLYSKLSVDKSRWQRGDTFICAVMHEALHMHYTQESLSHSPGK
chain 2: EIVMTQSPASLSLSQEEKVTITCKASQSVSFAGTGLMHWYQQKPGQAPKLLIYRASNLEAGVPSRFSGSGSGTDFSFTISSLEPEDVAVYYCQQSREYPWTFGQGTKLEIK
B2: caninized anti-IL31 antibody 34D03 (mAb1), canine IgGB, N434R (antibody)
chain 1: EVQLVESGGDLVKPGGSLRLSCVASGFTFSNYGMSWVRQAPGKGLQWVATISYGGSYTYYPDNIKGRFTISRDNAKNTLYLQMNSLRAEDTAMYYCVRGYGYDTMDYWGQGTLVTVSSASTTAPSVFPLAPSCGSTSGSTVALACLVSGYFPEPVTVSWNSGSLTSGVHTFPSVLQSSGLYSLSSMVTVPSSRWPSETFTCNVAHPASKTKVDKPVPKRENGRVPRPPDCPKCPAPEMLGGPSVFIFPPKPKDTLLIARTPEVTCVVVDLDPEDPEVQISWFVDGKQMQTAKTQPREEQFNGTYRVVSVLPIGHQDWLKGKQFTCKVNNKALPSPIERTISKARGQAHQPSVYVLPPSREELSKNTVSLTCLIKDFFPPDIDVEWQSNGQQEPESKYRTTPPQLDEDGSYFLYSKLSVDKSRWQRGDTFICAVMHEALHRHYTQESLSHSPGK
chain 2: EIVMTQSPASLSLSQEEKVTITCKASQSVSFAGTGLMHWYQQKPGQAPKLLIYRASNLEAGVPSRFSGSGSGTDFSFTISSLEPEDVAVYYCQQSREYPWTFGQGTKLEIK
B3: caninized anti-IL31 antibody 34D03 (mAb1), canine IgGB, N434V (antibody)
chain 1: EVQLVESGGDLVKPGGSLRLSCVASGFTFSNYGMSWVRQAPGKGLQWVATISYGGSYTYYPDNIKGRFTISRDNAKNTLYLQMNSLRAEDTAMYYCVRGYGYDTMDYWGQGTLVTVSSASTTAPSVFPLAPSCGSTSGSTVALACLVSGYFPEPVTVSWNSGSLTSGVHTFPSVLQSSGLYSLSSMVTVPSSRWPSETFTCNVAHPASKTKVDKPVPKRENGRVPRPPDCPKCPAPEMLGGPSVFIFPPKPKDTLLIARTPEVTCVVVDLDPEDPEVQISWFVDGKQMQTAKTQPREEQFNGTYRVVSVLPIGHQDWLKGKQFTCKVNNKALPSPIERTISKARGQAHQPSVYVLPPSREELSKNTVSLTCLIKDFFPPDIDVEWQSNGQQEPESKYRTTPPQLDEDGSYFLYSKLSVDKSRWQRGDTFICAVMHEALHVHYTQESLSHSPGK
chain 2: EIVMTQSPASLSLSQEEKVTITCKASQSVSFAGTGLMHWYQQKPGQAPKLLIYRASNLEAGVPSRFSGSGSGTDFSFTISSLEPEDVAVYYCQQSREYPWTFGQGTKLEIK
B4: caninized anti-IL31 antibody 34D03 (mAb1), canine IgGB, N434W (antibody)
chain 1: EVQLVESGGDLVKPGGSLRLSCVASGFTFSNYGMSWVRQAPGKGLQWVATISYGGSYTYYPDNIKGRFTISRDNAKNTLYLQMNSLRAEDTAMYYCVRGYGYDTMDYWGQGTLVTVSSASTTAPSVFPLAPSCGSTSGSTVALACLVSGYFPEPVTVSWNSGSLTSGVHTFPSVLQSSGLYSLSSMVTVPSSRWPSETFTCNVAHPASKTKVDKPVPKRENGRVPRPPDCPKCPAPEMLGGPSVFIFPPKPKDTLLIARTPEVTCVVVDLDPEDPEVQISWFVDGKQMQTAKTQPREEQFNGTYRVVSVLPIGHQDWLKGKQFTCKVNNKALPSPIERTISKARGQAHQPSVYVLPPSREELSKNTVSLTCLIKDFFPPDIDVEWQSNGQQEPESKYRTTPPQLDEDGSYFLYSKLSVDKSRWQRGDTFICAVMHEALHWHYTQESLSHSPGK
chain 2: EIVMTQSPASLSLSQEEKVTITCKASQSVSFAGTGLMHWYQQKPGQAPKLLIYRASNLEAGVPSRFSGSGSGTDFSFTISSLEPEDVAVYYCQQSREYPWTFGQGTKLEIK
B5: caninized anti-IL31 antibody 34D03 (mAb1), canine IgGB, N434Q (antibody)
chain 1: EVQLVESGGDLVKPGGSLRLSCVASGFTFSNYGMSWVRQAPGKGLQWVATISYGGSYTYYPDNIKGRFTISRDNAKNTLYLQMNSLRAEDTAMYYCVRGYGYDTMDYWGQGTLVTVSSASTTAPSVFPLAPSCGSTSGSTVALACLVSGYFPEPVTVSWNSGSLTSGVHTFPSVLQSSGLYSLSSMVTVPSSRWPSETFTCNVAHPASKTKVDKPVPKRENGRVPRPPDCPKCPAPEMLGGPSVFIFPPKPKDTLLIARTPEVTCVVVDLDPEDPEVQISWFVDGKQMQTAKTQPREEQFNGTYRVVSVLPIGHQDWLKGKQFTCKVNNKALPSPIERTISKARGQAHQPSVYVLPPSREELSKNTVSLTCLIKDFFPPDIDVEWQSNGQQEPESKYRTTPPQLDEDGSYFLYSKLSVDKSRWQRGDTFICAVMHEALHQHYTQESLSHSPGK
chain 2: EIVMTQSPASLSLSQEEKVTITCKASQSVSFAGTGLMHWYQQKPGQAPKLLIYRASNLEAGVPSRFSGSGSGTDFSFTISSLEPEDVAVYYCQQSREYPWTFGQGTKLEIK
B6: caninized anti-IL31 antibody 34D03 (mAb1), canine IgGB, N434T (antibody)
chain 1: EVQLVESGGDLVKPGGSLRLSCVASGFTFSNYGMSWVRQAPGKGLQWVATISYGGSYTYYPDNIKGRFTISRDNAKNTLYLQMNSLRAEDTAMYYCVRGYGYDTMDYWGQGTLVTVSSASTTAPSVFPLAPSCGSTSGSTVALACLVSGYFPEPVTVSWNSGSLTSGVHTFPSVLQSSGLYSLSSMVTVPSSRWPSETFTCNVAHPASKTKVDKPVPKRENGRVPRPPDCPKCPAPEMLGGPSVFIFPPKPKDTLLIARTPEVTCVVVDLDPEDPEVQISWFVDGKQMQTAKTQPREEQFNGTYRVVSVLPIGHQDWLKGKQFTCKVNNKALPSPIERTISKARGQAHQPSVYVLPPSREELSKNTVSLTCLIKDFFPPDIDVEWQSNGQQEPESKYRTTPPQLDEDGSYFLYSKLSVDKSRWQRGDTFICAVMHEALHTHYTQESLSHSPGK
chain 2: EIVMTQSPASLSLSQEEKVTITCKASQSVSFAGTGLMHWYQQKPGQAPKLLIYRASNLEAGVPSRFSGSGSGTDFSFTISSLEPEDVAVYYCQQSREYPWTFGQGTKLEIK
B7: caninized anti-IL31 antibody 34D03 (mAb1), canine IgGB, N434S (antibody)
chain 1: EVQLVESGGDLVKPGGSLRLSCVASGFTFSNYGMSWVRQAPGKGLQWVATISYGGSYTYYPDNIKGRFTISRDNAKNTLYLQMNSLRAEDTAMYYCVRGYGYDTMDYWGQGTLVTVSSASTTAPSVFPLAPSCGSTSGSTVALACLVSGYFPEPVTVSWNSGSLTSGVHTFPSVLQSSGLYSLSSMVTVPSSRWPSETFTCNVAHPASKTKVDKPVPKRENGRVPRPPDCPKCPAPEMLGGPSVFIFPPKPKDTLLIARTPEVTCVVVDLDPEDPEVQISWFVDGKQMQTAKTQPREEQFNGTYRVVSVLPIGHQDWLKGKQFTCKVNNKALPSPIERTISKARGQAHQPSVYVLPPSREELSKNTVSLTCLIKDFFPPDIDVEWQSNGQQEPESKYRTTPPQLDEDGSYFLYSKLSVDKSRWQRGDTFICAVMHEALHSHYTQESLSHSPGK
chain 2: EIVMTQSPASLSLSQEEKVTITCKASQSVSFAGTGLMHWYQQKPGQAPKLLIYRASNLEAGVPSRFSGSGSGTDFSFTISSLEPEDVAVYYCQQSREYPWTFGQGTKLEIK

Key:
[1] = target: T1, canine FcRn complex (FcRn-α subunit and β-microglobulin), biotin labeled by BirA, captured on SA chip … (canine, UniProt A0A8I3PFR8 25-296, biotin label by BirA enzymatic biotinylation (BAP tag)); experiment: SPR (Biacore), biotinylated FcRn captured on SA chip, IgG flowed, pH 6, 15 C
[2] = target: T1, canine FcRn complex (FcRn-α subunit and …); experiment: SPR (Biacore), biotinylated FcRn captured on SA chip, IgG flowed, pH 7.4, 15 C

T1 sequence (A0A8I3PFR8 entry or part of it, one chain of several): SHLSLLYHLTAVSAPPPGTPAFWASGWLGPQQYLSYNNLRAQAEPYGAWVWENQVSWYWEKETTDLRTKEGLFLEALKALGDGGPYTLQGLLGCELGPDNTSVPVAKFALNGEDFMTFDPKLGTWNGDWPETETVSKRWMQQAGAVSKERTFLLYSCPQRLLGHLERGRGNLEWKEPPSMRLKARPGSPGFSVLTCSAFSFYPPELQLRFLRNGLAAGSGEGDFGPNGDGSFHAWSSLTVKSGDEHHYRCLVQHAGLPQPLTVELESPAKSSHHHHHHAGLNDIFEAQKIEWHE

Kd [1]	Kd [2]	Binder
14.2 nM	146000 nM	B1
0.906 nM	3.11 nM	B2
6.16 nM	2750 nM	B3
1.98 nM	25300 nM	B4
5.91 nM	21.8 nM	B5
34.2 nM	554 nM	B6
20.2 nM	6960 nM	B7
